In patent publication US20060210655A1, “Bioactive compositions, natural methods of producing them and computational methods for designing natural production processes” (priority 2004, published 2006):

Experiments:
Y2-GPCR = molecular target: T1, Y2-GPCR (Homo sapiens, UniProt P49146); experiment: competitive binding assay against PYY22-36 on Y2-GPCR
T1 sequence (P49146 1-381): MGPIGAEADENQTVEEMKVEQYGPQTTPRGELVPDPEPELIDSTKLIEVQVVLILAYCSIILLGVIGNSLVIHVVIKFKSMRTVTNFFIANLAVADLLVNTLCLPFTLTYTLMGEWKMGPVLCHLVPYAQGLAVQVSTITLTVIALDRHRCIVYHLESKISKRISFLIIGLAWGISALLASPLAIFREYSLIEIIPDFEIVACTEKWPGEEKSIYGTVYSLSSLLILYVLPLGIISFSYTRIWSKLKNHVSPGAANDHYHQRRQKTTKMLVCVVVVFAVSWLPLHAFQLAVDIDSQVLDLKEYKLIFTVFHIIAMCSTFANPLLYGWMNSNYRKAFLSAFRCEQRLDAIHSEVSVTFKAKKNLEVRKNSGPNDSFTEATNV
Procedure: The peptides derived from the proteins AtRGP2, OsRGP1 and OsBiP were synthesized in 5 mg quantities at and purified to a purity of above about 90%. The peptides were tested in a competitive binding assay against PYY^22-36 for binding to the GPCR receptor.
In-vitro receptor-based screening of receptor subtypes Y1, Y2, and Y3 was performed according to protocols known in the art. (Munoz et al., Mol. Cell. Endocrinol. 107, 77 (1995), Fuhlendorf et al., PNAS 87, 182 (1990)) Screening of OsBiP, ZMRGP1 and AtRGP1 was conducted on Y2-GPCR as described above using known methods and activity was measured as the percentage of inhibition of binding of the endogenous ligand PYY^22-36 sequence. The PYY^22-36 sequence was used as a positive control. Of the peptides tested, the one derived from AtRGP1 protein was able to inhibit binding of PYY^22-36 by 20-40% when 10 μM concentration of both the PYY^22-36 and […] peptide were used in the binding assay. […] In vivo tissue-based screening on cultures of rat colon cells can be carried out according to known protocols, such as described in Dumont et al., Eur. J. Pharmacol. 238, 37 (1993).

CCK-B receptor = molecular target: T2, CCK-B receptor (Homo sapiens, UniProt P32239); experiment: competitive binding assay against CCK-8 for binding to the CCK-B GPCR receptor; settings: for inhibition of CCK-8 binding to the CCK-B receptor: peptides purified from trypsin hydrolysate, 10 μM; for inhibition of binding of the ligand CCK-8 to CCK-B receptor: synthetic peptides, 10 μM concentration
T2 sequence (P32239 1-447): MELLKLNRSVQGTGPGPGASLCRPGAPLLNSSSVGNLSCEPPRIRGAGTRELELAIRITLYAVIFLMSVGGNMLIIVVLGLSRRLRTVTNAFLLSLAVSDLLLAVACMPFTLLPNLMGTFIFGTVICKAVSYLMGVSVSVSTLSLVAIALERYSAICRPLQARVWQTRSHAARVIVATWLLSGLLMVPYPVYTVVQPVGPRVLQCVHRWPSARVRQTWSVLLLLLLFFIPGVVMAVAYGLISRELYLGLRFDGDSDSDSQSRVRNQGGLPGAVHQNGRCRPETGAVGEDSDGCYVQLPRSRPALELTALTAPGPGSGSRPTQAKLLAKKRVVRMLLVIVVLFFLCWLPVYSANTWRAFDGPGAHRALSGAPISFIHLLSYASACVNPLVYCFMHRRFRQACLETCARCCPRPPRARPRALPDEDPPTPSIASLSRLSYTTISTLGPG
Procedure: Oryzacystatin is a cystein proteinase inhibitor protein. […] The peptides […], PWMDFK and […] were synthesized in 5 mg quantities and purified to a purity of above about 90%. The peptides were tested in a competitive binding assay against CCK-8 for binding to the CCK-B GPCR receptor.
In-vitro receptor-based screening of receptor subtypes CCK-A and CCK-B was performed according to protocols known in the art. The binding activity of peptides […], PWMDFK and […] on CCK-A and CCK-B GPCR was measured as the percentage of inhibition of binding of the endogenous ligand CCK-8 sequence. The CCK-8 sequence was used as a positive control in this assay. […] None of the peptides tested activated CCK-A receptor at concentrations as high as 10 μM, probably due to the lack of sulfonation, a chemical modification required for agonizing the CCK-A receptor.
Hydrolysates were generated from the recombinantly expressed and purified oryzacystatin protein which was isolated from Oryza sativa. Trypsin was used to hydrolyze 10 mg of each sample using standard conditions. […] Again the hydrolysate and the two purified peptides were submitted to receptor-based screening. The hydrolysate itself inhibited CCK-8 binding to the CCK-B receptor by 21% at a 100 μM hydrolysate concentration, while the purified peptides, […] and PWMDFK, inhibited CCK-8 binding by 16%, and 14% at a 10 μM concentrations.
A final optimization of the hydrolysis by the combined consecutive action of trypsin and limited carboxypeptidase digestion was carried out with the goal of obtaining the peptides […] and PWMDF, resulting from the removal of the C-terminal lysine residue.

[1] = obese or nonobese subjects, cited from earlier work
[2] = molecular target: T3, CCK-B GPCR receptor (Homo sapiens (Human)) (UniProt P32239); experiment: competitive receptor binding assay against CCK-8 on CCK-B receptor, synthetic peptide at 10 µM
T3 sequence: T2 sequence (P32239 1-447)

[3] = molecular target: T4, Y2 G-protein-coupled receptor; experiment: competitive receptor binding assay on Y2-GPCR against PYY22-36, both peptides at 10 µM
T4 sequence (P49146 whole entry, species assumed, looked up): T1 sequence (P49146 1-381)

With “FDGVDFSEPLTRARF (listed as Oryza sativa) [OsBIP]” the “binding to the Y2 receptor” value (Y2-GPCR; qualitative) was “shown to bind the Y2 receptor”.

In the case of “PWMDFK (listed as Oryza sativa) [Oryza sativa oryzacystatin fragment, trypsin]”, the “inhibition of CCK-8 binding to the CCK-B receptor” value (CCK-B receptor) is reported as 14% and the “inhibition of binding of the ligand CCK-8 to CCK-B receptor” value (“inhibition of binding … to CCK-B receptor” below) (CCK-B receptor) is reported as 16%.

With “PWMDFKELQEFK (listed as Oryza sativa) [Oryza sativa oryzacystatin fragment, trypsin]” the “inhibition of binding … to CCK-B receptor” value (CCK-B receptor) was 5%.

In the case of “PYY: natural hormone produced by endocrine L-cells in the gut; agonist of Y2 receptors”, the “cumulative 24-hour caloric intake” value ([1]; after 90-minute intravenous infusion) is given as “significant decrease” and the “reduction of caloric intake” value ([1]; two hours after a 90-minute intravenous infusion) is given as 30%.

In the case of “VWEKPWMDFK (listed as Oryza sativa) [Oryza sativa oryzacystatin fragment, trypsin]”, the “inhibition of CCK-8 binding to the CCK-B receptor” value (CCK-B receptor) is reported as 16% and the “inhibition of binding … to CCK-B receptor” value (CCK-B receptor) is reported as 27%.

With “YSCRYFGYLVSKKKY (listed as Arabidopsis thaliana) [AtRGP1, peptide derived from Arabidopsis thaliana amylogenin protein RGP]” the “percentage of inhibition of binding of PYY22-36” value (Y2-GPCR; Y2-GPCR, 10 μM concentration of both PYY22-36 and peptide) was 20-40%.

PWMDFKELQEFK [Oryza sativa oryzacystatin hydrolyzed with trypsin - synthetic peptide 3] gave a % inhibition of binding of CCK-8 [2] of 5%.

Work on YSCRYFGYLVSKKKY [AtRGP2 peptide fragment] yielded a % inhibition of binding of PYY22-36 [3] of 20 to 40%.
